Measured values from patent US20260242478A1 (published 2026).
Read-outs that look alike come from different tables or passages of the source. Where no end group is shown, it is not given here.

B5: PSMA Fab (SEQ ID NOs: 19, 20) (Fab, V domains shown)
VH: QVQLVESGGGVVQPGRSLRLSCAASGFAFSRYGMHWVRQAPGKGLEWVAVIWYDGSNKYYADSVKGRFTISRDNSKNTQYLQMNSLRAEDTAVYYCARGGDFLYYYYYGMDVWGQGTTVTVSS
VL: DIQMTQSPSSLSASVGDRVTITCRASQGISNYLAWYQQKTGKVPKFLIYEASTLQSGVPSRFSGGGSGTDFTLTISSLQPEDVATYYCQNYNSAPFTFGPGTKVDIKR
notes: also called 006 PSMA Fab; anti-PSMA Fab

Assays:
Peptide-219 = biological target: T1, Peptide-219 (cysteine pairing not given here; also: biotinylated, site not given here); assay: BLI, biotinylated peptide on sensor
T1 peptide: HVKLCKPAWMCQGL

Peptide-225 = biological target: T2, Peptide-225 (cysteine pairing not given here; also: biotinylated, site not given here); assay: BLI, biotinylated peptide on sensor
T2 peptide: IPKSCIPSWMCTGF

Peptide-227 = biological target: T3, Peptide-227 (cysteine pairing not given here; also: biotinylated, site not given here); assay: BLI, biotinylated peptide on sensor
T3 peptide: LDNWCKPSWMCTGF

Peptide-230 = biological target: T4, Peptide-230 (cysteine pairing not given here; also: biotinylated, site not given here); assay: BLI, biotinylated peptide on sensor
T4 peptide: VTKWCIPPWMCEVT

Peptide-232 = biological target: T5, Peptide-232 (cysteine pairing not given here; also: biotinylated, site not given here); assay: BLI, biotinylated peptide on sensor
T5 peptide: LDKWCVPKWMCSGL

Peptide-233 = biological target: T6, Peptide-233 (cysteine pairing not given here; also: biotinylated, site not given here); assay: BLI, biotinylated peptide on sensor
T6 peptide: GEKWCIPDWMCSGF

Peptide-235 = biological target: T7, Peptide-235 (cysteine pairing not given here; also: biotinylated, site not given here); assay: BLI, biotinylated peptide on sensor
T7 peptide: VEKLCTPIWMCLGF

Peptide-236 = biological target: T8, Peptide-236 (cysteine pairing not given here; also: biotinylated, site not given here); assay: BLI, biotinylated peptide on sensor
T8 peptide: DVKLCKPEWMCYGL

Peptide-239 = biological target: T9, Peptide-239 (cysteine pairing not given here; also: biotinylated, site not given here); assay: BLI, biotinylated peptide on sensor
T9 peptide: IDIRCTPIWMCVGF

Peptide-263 = biological target: T10, Peptide-263 (cysteine pairing not given here; also: biotinylated, site not given here); assay: BLI, biotinylated peptide on sensor
T10 peptide: AVKACIPEWMCIGF

Peptide-267 = biological target: T11, Peptide-267 (cysteine pairing not given here; also: biotinylated, site not given here); assay: BLI, biotinylated peptide on sensor
T11 peptide: FTNYCVPSWMCTGF

Peptide-268 = biological target: T12, Peptide-268 (cysteine pairing not given here; also: biotinylated, site not given here); assay: BLI, biotinylated peptide on sensor
T12 peptide: VEKVCKPVWMCVGF

Peptide-270 = biological target: T13, Peptide-270 (cysteine pairing not given here; also: biotinylated, site not given here); assay: BLI, biotinylated peptide on sensor
T13 peptide: ESRLCVPAWMCAGF

Peptide-271 = biological target: T14, Peptide-271 (cysteine pairing not given here; also: biotinylated, site not given here); assay: BLI, biotinylated peptide on sensor
T14 peptide: EDILCKPKWMCEGF

Peptide-274 = biological target: T15, Peptide-274 (cysteine pairing not given here; also: biotinylated, site not given here); assay: BLI, biotinylated peptide on sensor
T15 peptide: ITPVCKPLWMCSGL

Peptide-277 = biological target: T16, Peptide-277 (cysteine pairing not given here; also: biotinylated (site not given here)); assay: BLI, biotinylated peptide on sensor
T16 peptide: VVIKCKPEWMCSGF

Peptide-282 = biological target: T17, Peptide-282 (cysteine pairing not given here; also: biotinylated (site not given here)); assay: BLI, biotinylated peptide on sensor
T17 peptide: IVVKCVPSWMCEGF

Peptide-283 = biological target: T18, Peptide-283 (cysteine pairing not given here; also: biotinylated (site not given here)); assay: BLI, biotinylated peptide on sensor
T18 peptide: TVAYCKPAWMCQGF

Peptide-284 = biological target: T19, Peptide-284 (cysteine pairing not given here; also: biotinylated (site not given here)); assay: BLI, biotinylated peptide on sensor
T19 peptide: TEVRCTPPWMCLGF

Peptide-285 = biological target: T20, Peptide-285 (cysteine pairing not given here; also: biotinylated (site not given here)); assay: BLI, biotinylated peptide on sensor
T20 peptide: VERLCTPAWMCHGF

Peptide-286 = biological target: T21, Peptide-286 (cysteine pairing not given here; also: biotinylated (site not given here)); assay: BLI, biotinylated peptide on sensor
T21 peptide: VLKYCIPDWMCAGI

[1] = biological target: T22, Anti-CD28 Fab (SEQ ID NOs: 696, 697); assay: phage binding ELISA; anti-CD28 Fab on plate pre-incubated with CD28 antigen as competitor, anti-M13 HRP detection
T22 construct: Biotinylated and captured on neutravidin coated plates in the panning ELISA

[2] = biological target: T22, Anti-CD28 Fab (SEQ ID NOs: 696, 697); assay: phage binding ELISA; biotinylated anti-CD28 Fab on neutravidin plate, clonal phage supernatant, anti-M13 HRP detection;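 also: wells pretreated with blocking buffer, either plus or minus CD28 antigen, then given crude phage supernatant briefly without washing in between, then washed before anti-M13 HRP readout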
Ab-15 [3] = assay: BLI (Octet): biotinylated peptide on sensor, Ab-15 titrated, 1:1 model
Ab-15 [4] = assay: binding ELISA: biotinylated peptide on neutravidin plate, Ab-15 titrated
Ab-15 [5] = assay: as above; remark: listed apart in the source
Ab-15 [6] = assay: BLI (Octet): sensor loaded with 20 nM biotinylated peptide, 100 nM Ab-15
Ab-15 [7] = assay: BLI (Octet): sensor loaded with 200 nM biotinylated peptide, 100 nM Ab-15;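 as to t1/2: binding association and dissociation tracked in real time, fitted to a 1:1 binding model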
Ab-15 [8] = assay: as above; remark: listed apart in the source
Ab-15 [9] = assay: competition ELISA: peptide titrated against 1 nM Ab-15; competitor plate-bound CD28
Ab-15 [10] = assay: as above; remark: listed apart in the source
Ab-15 [11] = assay: BLI (Octet): biotinylated peptide on sensor, Ab-15 titrated, 1:1 model; remark: listed apart in the source
[12] = biological target: B5; assay: competition ELISA, peptide titrated against 0.3 nM PSMA Fab on captured biotinylated PSMA
Peptide-179 [13] = biological target: T23, Peptide-179 (cysteine pairing not given here; also: biotinylated (site not given here)); assay: ELISA, biotinylated peptide captured on neutravidin, PSMA Fab titrated
T23 construct: PSMA peptide mask (P2)
T23 peptide: LMKWCTPRWMCAAE

Peptide-180 [14] = biological target: T24, Peptide-180 (cysteine pairing not given here; also: biotinylated (site not given here)); assay: as above
T24 construct: PSMA peptide mask (P2)
T24 peptide: IAVLCQPNWMCAGF

Peptide-181 = biological target: T25, Peptide-181 (cysteine pairing not given here; also: biotinylated (site not given here)); assay: as above
T25 construct: PSMA peptide mask (P2)
T25 peptide: PELRCVPFWMCSFN

Peptide-179 [15] = biological target: T23, Peptide-179; assay: as above
Peptide-179 [16] = biological target: T23, Peptide-179; assay: BLI (Octet), biotinylated peptide on streptavidin sensor, PSMA Fab titrated, 1:1 model
Peptide-180 [17] = biological target: T24, Peptide-180; assay: as above
Peptide-194 = biological target: T26, Peptide-194 (cysteine pairing not given here; also: biotinylated (site not given here)); assay: as above
T26 construct: PSMA peptide mask (P2)
T26 peptide: SKLLCVPPWMCYHV

Peptide-202 = biological target: T27, Peptide-202 (cysteine pairing not given here; also: biotinylated (site not given here)); assay: as above
T27 construct: PSMA peptide mask (P2)
T27 peptide: MCQWDELNYWMDCD

Peptide-204 = biological target: T28, Peptide-204 (cysteine pairing not given here; also: biotinylated (site not given here)); assay: as above
T28 construct: PSMA peptide mask (P2)
T28 peptide: QCTWNEKTWWMECE

Peptide-205 = biological target: T29, Peptide-205 (cysteine pairing not given here; also: biotinylated (site not given here)); assay: as above
T29 construct: PSMA peptide mask (P2)
T29 peptide: MCQWDKINYWMDCD

B1: PSMA Fab (SEQ ID NOs: 19, 20) (Fab, V domains shown)
VH: QVQLVESGGGVVQPGRSLRLSCAASGFAFSRYGMHWVRQAPGKGLEWVAVIWYDGSNKYYADSVKGRFTISRDNSKNTQYLQMNSLRAEDTAVYYCARGGDFLYYYYYGMDVWGQGTTVTVSS
VL: DIQMTQSPSSLSASVGDRVTITCRASQGISNYLAWYQQKTGKVPKFLIYEASTLQSGVPSRFSGGGSGTDFTLTISSLQPEDVATYYCQNYNSAPFTFGPGTKVDIKR
notes: as for B5
Peptide-219
  binding result: binds
Peptide-225
  binding result: binds
Peptide-227
  binding result: binds
Peptide-230
  binding result: binds
Peptide-232
  binding result: binds
Peptide-233
  binding result: binds
Peptide-235
  binding result: binds
Peptide-236
  binding result: binds
Peptide-239
  binding result: binds
Peptide-263
  binding result: binds
Peptide-267
  binding result: binds
Peptide-268
  binding result: binds
Peptide-270
  binding result: binds
Peptide-271
  binding result: binds
Peptide-274
  binding result: binds
Peptide-277
  binding result: binds
Peptide-282
  binding result: binds
Peptide-283
  binding result: binds
Peptide-284
  binding result: binds
Peptide-285
  binding result: binds
Peptide-286
  binding result: binds

B2: Phage-1704 (clonal phage displaying a Peptide-92 library peptide, SEQ ID NO: 2000) (peptide)
peptide: SCAAGAGYGWPQCL
modifications: cysteine pairing not given here; also: displayed as fusion to phage pIII, linker and order of fusion not given here
notes: not shown: pIII filament protein of the bacteriophage to which the peptide is fused
[1]
  Anti-CD28 Fab signal in the presence of CD28 (phage binding ELISA): 0.13
[2]
  Anti-CD28 Fab signal (phage binding ELISA): 0.55

B3: Phage-1705 (clonal phage displaying a Peptide-92 library peptide, SEQ ID NO: 2001) (peptide)
peptide: SCGGGFHYSWPLCF
modifications: cysteine pairing not given here; also: displayed as fusion to phage pIII, linker and order of fusion not given here
notes: as for B2
[1]
  Anti-CD28 Fab signal in the presence of CD28 (phage binding ELISA): 0.15
[2]
  Anti-CD28 Fab signal (phage binding ELISA): 0.55

B4: Phage-1706 (clonal phage displaying a Peptide-92 library peptide, SEQ ID NO: 2002) (peptide)
peptide: GCAAGFHYTLSTCL
modifications: cysteine pairing not given here; also: displayed as fusion to phage pIII, linker and order of fusion not given here
notes: as for B2
[1]
  Anti-CD28 Fab signal in the presence of CD28 (phage binding ELISA): 0.05
[2]
  Anti-CD28 Fab signal (phage binding ELISA): 0.42

## MDWCPRDLWVHCFA (cysteine pairing not given here; also: biotinylated, site not given here, CD28 peptide mask) [Peptide-41]
Ab-15 [3]
  Kd: 15.1 nM
  t1/2: 15.5 min
Ab-15 [4]
  EC50: 4 nM
Ab-15 [5]
  EC50: 1 nM
Ab-15 [6]
  Octet signal (20 nM peptide): 0.509
Ab-15 [7]
  Octet signal: 2.03
  t1/2: 9.8 min
Ab-15 [8]
  Octet signal (200 nM peptide): 1.8
Ab-15 [9]
  IC50: 60 nM
Ab-15 [10]
  IC50: 200 nM

## IDWCPRYLWDECYN (cysteine pairing not given here; also: biotinylated, site not given here, CD28 peptide mask) [Peptide-71]
Ab-15 [11]
  Kd: 16 nM
  t1/2: 9.1 min
Ab-15 [5]
  EC50: 2.1 nM
Ab-15 [8]
  Octet signal (200 nM peptide): 1.52
Ab-15 [10]
  IC50: 140 nM

## PLCGTEEVWWECRL (cysteine pairing not given here; also: biotinylated (site not given here), PSMA peptide mask (P2)) [Peptide-166]
[12]
  IC50: 19200 nM

## HCKFHDYHSWYMCY (cysteine pairing not given here; also: biotinylated (site not given here), PSMA peptide mask (P2)) [Peptide-175]
[12]
  IC50: 17800 nM

## PDCVYHSFWGYSCR (cysteine pairing not given here; also: biotinylated (site not given here), PSMA peptide mask (P2)) [Peptide-178]
[12]
  IC50: 20800 nM

## B5
Peptide-179 [13]
  EC50: 5.9 nM
Peptide-180 [14]
  EC50: 33 nM
Peptide-181
  EC50: 3 nM
Peptide-179 [15]
  EC50: 120 nM
Peptide-179 [16]
  Off rate t1/2: 1.09 min
Peptide-180 [17]
  Off rate t1/2: 0.75 min
Peptide-194
  Off rate t1/2: < 1 min
Peptide-202
  Off rate t1/2: < 1 min
Peptide-204
  Off rate t1/2: < 1 min
Peptide-205
  Off rate t1/2: < 1 min
